This data set concerns the molecule itself. Description: Western blot of HEK lysates after detergents, 95 C and beta-mercaptoethanol; homodimer band at about 50 kDa. (In general: In western blotting, separated proteins are transferred to a membrane and probed.)

The source of these data is patent US20150301068A1 (VIB VZW, published 2015).

B1: tetraspanin 6 (TSPAN6) (other)
chain: MASPSRRLQTKPVITCFKSVLLIYTFIFWITGVILLAVGIWGKVSLENYFSLLNEKATNVPFVLIATGTVIILLGTFGCFATCRASAWMLKLYAMFLTLVFLVELVAAIVGFVFRHEIKNSFKNNYEKALKQYNSTGDYRSHAVDKIQNTLHCCGVTDYRDWTDTNYYSEKGFPKSCCKLEDCTPQRDADKVNNEGCFIKVMTIIESEMGVVAGISFGVACFQLIGIFLAYCLSRAITNNQYEIV
notes: Endogenous TSPAN6 in HEK cell lysates, exosomes and human CSF, on Western blots; also called tetraspanin TM4-D; tetraspanin TM4SF
As for B1, the binding result is on record as “binds”.
